Results from US20140154261A1 (TORAY INDUSTRIES, published 2014).

T1: CAPRIN-1 protein on the cell surface of human cancer cell lines (human, UniProt Q14444 2-709)
T1 sequence (looked up): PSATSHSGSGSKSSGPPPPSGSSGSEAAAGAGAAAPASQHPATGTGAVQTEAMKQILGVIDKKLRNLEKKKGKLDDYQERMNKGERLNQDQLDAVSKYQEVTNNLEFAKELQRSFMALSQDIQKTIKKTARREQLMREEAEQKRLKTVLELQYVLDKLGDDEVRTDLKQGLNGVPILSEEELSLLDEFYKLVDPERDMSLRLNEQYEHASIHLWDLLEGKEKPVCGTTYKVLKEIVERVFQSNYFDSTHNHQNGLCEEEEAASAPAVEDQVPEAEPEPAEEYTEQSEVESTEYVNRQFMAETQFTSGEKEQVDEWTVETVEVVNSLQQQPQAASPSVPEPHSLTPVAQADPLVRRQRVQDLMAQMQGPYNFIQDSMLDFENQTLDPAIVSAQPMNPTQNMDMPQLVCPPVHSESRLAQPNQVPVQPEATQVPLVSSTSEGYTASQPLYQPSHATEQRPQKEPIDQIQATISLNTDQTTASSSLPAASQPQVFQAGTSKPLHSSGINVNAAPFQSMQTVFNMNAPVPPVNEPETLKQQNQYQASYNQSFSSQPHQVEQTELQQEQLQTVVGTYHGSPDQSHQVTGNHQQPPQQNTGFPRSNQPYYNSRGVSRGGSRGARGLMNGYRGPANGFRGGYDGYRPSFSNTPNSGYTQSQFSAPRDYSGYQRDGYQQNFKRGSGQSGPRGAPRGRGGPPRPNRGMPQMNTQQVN

B1: human-mouse chimeric comparative monoclonal antibody 4 (antibody, human IgG1, kappa, V domains shown)
VH: EVQLHQFGAELVKPGASVKISCKASGYTFTDYNMDWVKQSHGKSLEWIGDINPNYDSTSYNQKFKGKATLTVDKSSSTAYMELRSLTSEDTAVYYCARSRSYDYEGFAYWGQGTLVTVSA
VL: SGDRVSLSCRASQSISNYLHWYQQKSHESPRLLIKYASQSISGIPSRFSGSGSGTDFTLSINSVETEDFGMYFCQQSNSWPYTFGAGTKLEIKQ
B2: human-mouse chimeric comparative monoclonal antibody 7 (antibody, human IgG1, kappa, V domains shown)
VH: LQESGAELARPGASVKLSCKASGYTFTSYWMQWVKQRPGQGLEWIGAIYPGDGDTRYTQKFKGKATLTADKSSSTAYMQLSSLASEDSAVYYCARGEYGNYFAYWGQGTTVTVSS
VL: TSDASLGERVTITCKASQDINSYLSWFQQKPGKSPKTLIYRANRLVDGVPSRFSGSGSGQDYSLTISSLEYEDMGIYYCLQYDEFPLTFGGGTKLEIKQ
B3: human-mouse chimeric comparative monoclonal antibody 3 (antibody, human IgG1, kappa)
heavy: not shown
light: RTTSHMDSDIQLTQSPASLSASVGETVTITCRASGNIHNYLAWYQQKQGKSPQLLVYNAKTLADGVPSRFSGSGSGTQYSLKINSLQPEDFGSYYCQHFWSTLTFGGGTKLEIKQSDTVAAPSVFIFPPSDEQLKSGTASVVCLLNNFYPREAKVQWKVDNALQSGNSQESVTEQDSKDSTYSLSSTLTLSKADYEKHKVYACEVTHQGLSSPVTKSFNRGEC
B4: human-mouse chimeric comparative monoclonal antibody 1 (antibody)
heavy: not shown
light: DIQMTQSPASLSASVGETVTITCRASGNIHNYLAWYQQKQGKSPQLLVYNAKTLADGVPSRFSGSGSGTQYSLKINSLQPEDFGSYYCQHFWSTLTFGAGTKLELKRTVAAPSVFIFPPSDEQLKSGTASVVCLLNNFYPREAKVQWKVDNALQSGNSQESVTEQDSKDSTYSLSSTLTLSKADYEKHKVYACEVTHQGLSSPVTKSFNRGEC

molecular target: T1, CAPRIN-1 protein on the cell surface of …; assay: cell-based or functional assay

| Binder | cytotoxic activity (ADCC, chromium 51 release) against MCF7, QG56, HCT-116, MIAPaCa-2 and Caki-2 [%] |
| --- | --- |
| B1 | < 5 |
| B2 | < 5 |
| B3 | < 5 |
| B4 | < 5 |
